T1: PIRB (UniProt P97484 25-642, limits assumed)
T1 sequence (looked up): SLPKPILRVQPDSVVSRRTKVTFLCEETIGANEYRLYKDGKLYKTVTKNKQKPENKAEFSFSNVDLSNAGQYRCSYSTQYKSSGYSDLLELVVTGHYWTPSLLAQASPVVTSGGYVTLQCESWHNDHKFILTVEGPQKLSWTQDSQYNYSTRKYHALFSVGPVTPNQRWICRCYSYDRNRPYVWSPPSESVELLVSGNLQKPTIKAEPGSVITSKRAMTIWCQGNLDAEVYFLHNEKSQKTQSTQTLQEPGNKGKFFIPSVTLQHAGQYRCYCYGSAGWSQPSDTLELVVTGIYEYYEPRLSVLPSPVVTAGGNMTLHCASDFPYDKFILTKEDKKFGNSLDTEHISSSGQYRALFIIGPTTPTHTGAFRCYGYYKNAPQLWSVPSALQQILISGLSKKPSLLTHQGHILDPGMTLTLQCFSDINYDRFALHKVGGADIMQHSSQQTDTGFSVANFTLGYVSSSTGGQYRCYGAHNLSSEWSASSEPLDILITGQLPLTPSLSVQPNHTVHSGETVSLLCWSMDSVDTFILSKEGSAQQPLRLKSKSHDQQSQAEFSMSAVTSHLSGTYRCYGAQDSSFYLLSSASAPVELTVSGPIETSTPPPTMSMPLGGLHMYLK


How the values were obtained:
ILT6 = ILT6 (UniProt Q8N6C8 24-439, limits assumed); test: binding ELISA, column hILT6-His
ILT6, sequence (Q8N6C8 24-439 limits assumed): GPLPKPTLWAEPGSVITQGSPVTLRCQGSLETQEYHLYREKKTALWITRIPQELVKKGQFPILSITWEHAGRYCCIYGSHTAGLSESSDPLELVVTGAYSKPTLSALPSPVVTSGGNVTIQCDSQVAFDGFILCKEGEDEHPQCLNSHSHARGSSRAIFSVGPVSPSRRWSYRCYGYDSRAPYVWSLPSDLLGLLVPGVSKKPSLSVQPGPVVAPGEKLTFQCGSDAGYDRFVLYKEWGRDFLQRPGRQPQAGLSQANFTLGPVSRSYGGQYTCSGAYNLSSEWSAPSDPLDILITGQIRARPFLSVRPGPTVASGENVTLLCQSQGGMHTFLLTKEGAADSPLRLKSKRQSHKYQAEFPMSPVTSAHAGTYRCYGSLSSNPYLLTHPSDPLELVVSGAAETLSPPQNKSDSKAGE

LILRA1 = LILRA1 (UniProt O75019 17-461, limits assumed); test: binding ELISA, column hLILRA1-His
LILRA1, sequence (O75019 17-461 limits assumed): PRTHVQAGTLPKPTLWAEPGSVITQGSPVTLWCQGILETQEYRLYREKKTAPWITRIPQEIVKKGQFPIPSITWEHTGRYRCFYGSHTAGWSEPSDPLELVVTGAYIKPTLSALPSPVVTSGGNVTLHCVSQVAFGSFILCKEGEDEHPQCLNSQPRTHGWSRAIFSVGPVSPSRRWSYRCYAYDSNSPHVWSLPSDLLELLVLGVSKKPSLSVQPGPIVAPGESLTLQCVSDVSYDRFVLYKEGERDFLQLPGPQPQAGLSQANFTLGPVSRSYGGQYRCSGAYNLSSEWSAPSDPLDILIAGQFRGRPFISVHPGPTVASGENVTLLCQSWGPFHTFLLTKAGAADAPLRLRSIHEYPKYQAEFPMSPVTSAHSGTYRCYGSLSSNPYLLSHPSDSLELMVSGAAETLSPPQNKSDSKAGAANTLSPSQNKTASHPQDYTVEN

recombinant ILT2 (human) = target: T2, recombinant ILT2 (human) (human, UniProt Q8NHL6 24-461); test: binding ELISA, hILT2-Fc
T2 construct: also called recombinant ILT2 peptide; ILT2 protein
T2 sequence (Q8NHL6 24-461 limits assumed): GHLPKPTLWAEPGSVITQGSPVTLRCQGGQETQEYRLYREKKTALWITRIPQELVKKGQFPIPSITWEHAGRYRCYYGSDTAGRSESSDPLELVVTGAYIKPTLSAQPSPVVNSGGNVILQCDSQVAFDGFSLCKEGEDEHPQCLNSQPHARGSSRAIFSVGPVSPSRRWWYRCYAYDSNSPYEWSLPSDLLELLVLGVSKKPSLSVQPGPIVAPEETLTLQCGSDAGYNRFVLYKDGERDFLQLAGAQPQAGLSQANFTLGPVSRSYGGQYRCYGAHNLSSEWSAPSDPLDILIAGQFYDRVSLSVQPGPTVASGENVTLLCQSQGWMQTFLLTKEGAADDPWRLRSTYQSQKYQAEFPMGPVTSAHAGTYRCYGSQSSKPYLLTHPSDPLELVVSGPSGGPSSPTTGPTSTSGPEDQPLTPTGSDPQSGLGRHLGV

PIRB = target: T1, PIRB; test: binding ELISA, column PIRB

Row | ELISA (OD) (ILT6) | binding result (ILT6) | ELISA (OD) (LILRA1) | binding result (LILRA1) | ELISA (OD) (recombinant ILT2 (human)) | ELISA (OD) (PIRB) | binding result (PIRB) | Binder
1 | 0.07 | no binding | 0.14 | no binding | 1.11 | 0.08 | no binding | 15G8 (hybridoma-derived, murine) (antibody, V domains shown, also called 15G8 antibody) VH: DVQLQGSGPGLVKPSQSLSLTCSVTGYSITSGYYWNWIRQFPGNKLEWMGYISYDGSNNYNPSLKNRISITRDTSKNQFFLKLNSVTSEDTATYYCAHGYSYYYAMDCWGQGTSVTVSS VL: DIQMTQTTSSLSASLGDRVTISCRTSQDISNYLNWYQQKPDGTVKLLISYTSRLHSGVPSRFSGSGSGTDYSLTISNLEQEDIATYFCQQGNTLPTFGSGTKLEIK
2 | 0.06 | no binding | 0.08 | no binding | 1.89 | 0.06 | no binding | 17F2 (hybridoma-derived, murine) (antibody, V domains shown) VH: QVQLQQSDAELVKPGASVKISCKVSGYTFTDHTIHWMKQRPEQGLEWIGYIYPRDGSTKYNEKFKGKATLTADKSSSTAYMQLNSLTSEDSAVYFCARTWDYFDYWGQGTTLTVSS VL: DIVLTQSPASLAVSLGQRATISCRASESVDSYGNSFMHWYQQKPGQPPKLLIYRASNLESGIPARFSGSGSRTDFTLTINPVEADDVATYYCQQSNEDPYTFGGGTKLEIK
3 | 0.13 | no binding | 0.11 | no binding | 2.61 | 0.14 | no binding | 19E3 (hybridoma-derived, murine) (antibody, V domains shown) VH: QVQLQQSGAELARPGASVKLSCKASGYTFTSYGISWVKQRTGQGLEWVGEIYPGSGNSYYNEKFKGKATLTADKSSSTAYMELRSLTSEDSAVYFCARSNDGYPDYWGQGTTLTVSS VL: DIQMTQSSSYLSVSLGGRVTITCKASDHINNWLAWYQQKPGNAPRLLISGATSLETGVPSRFSGSGSGKDYTLSITSLQTEDVATYYCQQYWSTPWTFGGGTKLEIK

Reference: patent US20220048991A1 (BIOND BIOLOGICS, published 2022)
